# B1: CPEB3 Ribozyme (parent)
# chain: UAACAGGGGGCCACAGCAGAAGCGUUCACGUCGCAGCCCCUGUCAGAUUCUGGUGAAUCUGCGAAUUCUGCUGUAUAUCUC
# Variants of: B1
# Assay: self-cleavage, relative activity (ratio to wild type); higher = more cleavage; in vitro, sequencing
# Summary of the method: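 Relative activity compares each variant's cleaved/total read fraction with that of the unmutated ribozyme. To get these fractions, barcoded CPEB3 ribozyme libraries from rounds of error-prone PCR were transcribed with T7 RNA polymerase for 5 hours at 37°C and then given 15 min of DNase I treatment before EDTA was added. The RNAs were reverse transcribed with template switching and sequenced on Illumina, and DNA sequencing linked barcodes to variants. A minimum of 5 reads applied, and three batches were averaged.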
row,Variant,self-cleavage
1,A20G G24U,0.14
2,A20G G24A,0.29
3,A21C U72A,0.19
4,A20U U80A,0.45
5,A20U U80C,0.37
6,A21G A56G,0.4
7,A21G A56C,0.36
8,A21G A56U,0.41
9,A21C,0.24
10,A21G,0.64
11,A20G A57U,0.53
12,A20G A57G,0.7
13,A20G A57C,0.26
14,A21C U80A,0.18
15,A21C U80C,0.1
16,A20G G73A,1.22
17,A20G G73U,1.19
18,A20G U54A,0.97
19,A20G U54C,0.88
20,A20G U54G,0.52
21,A20U U41A,0.3
22,A20U U41G,0.23
23,A20U U41C,0.28
24,A20U C81U,0.32

row,Variant,self-cleavage
1,A21C U60A,0.36
2,A21C U60G,0.15
3,A21C U60C,0.07
4,A20U U76C,0.36
5,A20U U76A,0.25
6,A20U U67G,0.44
7,A20U U67C,0.22
8,A20U U67A,1.16
9,A20G C79A,1.09
10,A20G C79G,1.09
11,A20G C79U,0.85
12,A20G G63A,0.63
13,A20G G63U,0.83
14,A20G G63C,0.63
15,A20U A56C,0.54
16,A20U A56G,0.25
17,A20U A56U,0.25
18,A21G A64U,0.26
19,A21G A64G,0.42
20,A21G A64C,0.37
21,A20U A28U,0.19
22,A20U A28C,0.18
23,A20U A28G,0.22
24,A20U G46A,0.07

row,Variant,self-cleavage
1,A20U G46U,0.18
2,A20U A21U,0.29
3,A20U A21G,0.23
4,A20U C59G,0.24
5,A20G C23U,0.38
6,A20G U26G,0.36
7,A20G U26A,0.77
8,A20G U26C,0.37
9,A20G U43C,0.4
10,A20G U43G,0.44
11,A20G U43A,1.05
12,A20U G22U,0.1
13,A20U G22A,0.2
14,A21C C71A,0.09
15,A21C C71G,0.11
16,A20G G55A,0.58
17,A20G G55U,0.62
18,A20G C34A,0.11
19,A20U U69C,0.15
20,A20U U69A,0.22
21,A20U U69G,0.21
22,A20U U72A,0.25
23,A20U U72G,0.13
24,A20U U72C,0.34

row,Variant,self-cleavage
1,A20U U48A,0.14
2,A20U U48C,0.29
3,A20G C71G,0.14
4,A20G C71A,0.15
5,A20G C71U,0.56
6,A20G U67C,1.01
7,A20G U67A,0.55
8,A20G U67G,0.25
9,A21G A65U,0.24
10,A21G A65C,0.12
11,A21G A65G,0.28
12,A20G G30A,0.3
13,A20G G30C,0.24
14,A20G G30U,0.25
15,A20G G33U,0.29
16,A20G G33A,0.35
17,A20G G33C,0.14
18,A20G C40U,0.46
19,A20G C40A,0.23
20,A20U G52C,0.27
21,A20U G52U,0.38
22,A20U G52A,0.41
23,A20U U51C,0.32
24,A20U U51A,0.25

row,Variant,self-cleavage
1,A20G U58C,0.36
2,A20G U58G,0.11
3,A20G U58A,0.27
4,A20U G53A,0.28
5,A20G U25G,0.41
6,A20G U25C,0.3
7,A20G U25A,0.27
8,A20U C29U,0.15
9,A20U,0.33
10,A21C A45G,0.41
11,A21C A45U,0.13
12,A21C G73A,0.35
13,A20G C62U,0.2
14,A20G C62G,0.17
15,A20G U80A,1.03
16,A20G U80C,1.03
17,A20G U80G,1.14
18,A20U G33C,0.15
19,A20G C59U,0.82
20,A20G C59G,0.45
21,A20G C27U,0.47
22,A20G C27A,0.16
23,A20G C29U,0.36
24,A20G C29G,0.39

row,Variant,self-cleavage
1,A21C A64U,0.07
2,A21C A64C,0.17
3,A20U U49A,0.2
4,A20U U49C,0.3
5,A20U C38A,0.1
6,A20U C38U,0.42
7,A20U C39G,0.27
8,A20U C39A,0.21
9,A21C A35G,0.39
10,A20G A65U,0.29
11,A20G A65G,0.32
12,A20G A65C,0.13
13,A21C U25A,0.28
14,A21C U25C,0.28
15,A21C A65G,0.34
16,A21G A35G,1.16
17,A21G A35U,0.27
18,A21G A35C,0.13
19,A21C U26A,0.23
20,A21C U78C,0.37
21,A21C U41C,0.13
22,A20G C37A,0.41
23,A20G C37G,0.78
24,A20G C37U,0.62

row,Variant,self-cleavage
1,A20U G24A,0.09
2,A20U G24U,0.08
3,A20U G24C,0.4
4,A20U C23A,0.22
5,A20U C23G,0.3
6,A20U C23U,0.4
7,A21C U54C,0.23
8,A21C U54A,0.17
9,A20G U60C,0.34
10,A20G U60A,0.35
11,A21G A47U,0.36
12,A21G A47G,0.42
13,A20G U49A,0.34
14,A20G U49C,0.31
15,A20G U49G,0.28
16,A20G U66C,0.37
17,A20G U66G,0.37
18,A20G U66A,0.33
19,A20G U48G,0.31
20,A20G U48A,0.38
21,A20G U48C,0.4
22,A21C U51A,0.15
23,A21C U51C,0.19
24,A20G G61U,0.39

row,Variant,self-cleavage
1,A20G U31A,0.37
2,A20G U31C,0.56
3,A20G U31G,0.58
4,A20U U31C,0.26
5,A20U U31A,0.24
6,A20U U31G,0.23
7,A20G G70A,0.33
8,A20G G70C,0.19
9,A20U C71A,0.17
10,A21G A75G,0.56
11,A21G A75U,0.72
12,A21G A75C,0.62
13,A20U U78A,0.43
14,A20U U78C,0.32
15,A20U U78G,0.26
16,A20G U51G,0.82
17,A20G U51C,0.85
18,A20G U51A,0.8
19,A20U A47G,0.33
20,A21G A45U,0.32
21,A21G A45C,0.25
22,A21G A45G,0.44
23,A20U U58C,0.28
24,A20G U76C,0.92

row,Variant,self-cleavage
1,A20G U76A,1.03
2,A20G U76G,0.99
3,A20G C81G,0.88
4,A20G C81A,1.09
5,A20G C81U,1.09
6,A20G G42U,0.22
7,A20G G42A,0.53
8,A20G U78C,0.85
9,A20G U78A,0.79
10,A20U A35U,0.22
11,A20U A35G,0.87
12,A20G A77U,0.83
13,A20G A77C,0.79
14,A20G A77G,0.91
15,A21C G53U,0.15
16,A20G U74C,1.17
17,A20G U74G,1.17
18,A20G U74A,1.19
19,A20U A75G,0.2
20,A20U A75U,0.28
21,A20G C39A,0.37
22,A20G C39U,0.63
23,A20U G30U,0.24
24,A21C U74C,0.08

row,Variant,self-cleavage
1,A20U C68U,0.28
2,A20G C44U,0.21
3,A20G C44A,0.32
4,A21C G46A,0.37
5,A20U A77G,0.39
6,A20U A77U,0.28
7,A20U A77C,0.25
8,A20G A64U,0.31
9,A20G A64C,0.53
10,A20G A64G,0.65
11,A20G G36A,0.36
12,A20U G42A,0.64
13,A20U G42U,0.13
14,A20U C27A,0.27
15,A20U C27U,0.18
16,A20U C27G,0.19
17,A20U C62U,0.15
18,A20U G73A,0.67
19,A20U U74G,0.55
20,A20U U74C,0.33
21,A20U U74A,0.54
22,A20G G46A,0.26
23,A20G G46C,0.11
24,A20G G46U,0.23

row,Variant,self-cleavage
1,A21C A47G,0.3
2,A20G A75G,0.81
3,A20G A75U,0.71
4,A21C C38A,0
5,A21C C38U,0.16
6,A20U C40G,0.27
7,A20U C40A,0.23
8,A20U C40U,0.34
9,A20U C44A,0.27
10,A20U U26C,0.27
11,A20U U26A,0.34
12,A20G A47G,0.75
13,A20G A47C,0.44
14,A20G A47U,0.42
15,A20G U41G,0.35
16,A20G U41C,0.89
17,A20G U41A,0.28
18,A20U U60C,0.19
19,A20U U60G,0.21
20,A20U U60A,0.41
21,A20U G70U,0.15
22,A20U G70A,0.17
23,A21C A56G,0.3
24,A21C A56U,0.16

row,Variant,self-cleavage
1,A20G U69C,0.5
2,A20G U69A,0.34
3,A20G U69G,0.42
4,A20U A65C,0.1
5,A20U A65G,0.2
6,A20U A64G,0.35
7,A20U A64U,0.26
8,A20U U54G,0.26
9,A20U U54A,0.29
10,A20U U54C,0.31
11,A21C G55C,0.21
12,A21G A28G,0.35
13,A21G A28C,0.3
14,A21G A28U,0.38
15,A21C C81G,0.3
16,A21C U76A,0.1
17,A21C U43A,0.35
18,A21C U43C,0.19
19,A20G A56U,0.47
20,A20G A56G,0.66
21,A20U C79G,0.37
22,A20U C50A,0.21
23,A21C C23G,0.16
24,A20U U66A,0.3

row,Variant,self-cleavage
1,A20U U66C,0.28
2,A20U U66G,0.26
3,A20U C32U,0.3
4,A20U C32A,0.18
5,A20U U25C,0.31
6,A20U U25G,0.15
7,A20U U25A,0.26
8,A20U G63A,0.19
9,A20G C50U,0.99
10,A20G C50A,0.89
11,A20G C50G,0.57
12,A20G A45G,0.61
13,A20G A45U,0.3
14,A20G C68U,0.75
15,A20G C68A,0.24
16,A21C U48C,0.19
17,A20G C32A,0.27
18,A20G C32U,0.22
19,A20G C32G,0.12
20,A20G G52A,0.9
21,A20G G52U,1.12
22,A21G A57U,0.38
23,A21G A57G,0.49
24,A21C U67C,0.1

row,Variant,self-cleavage
1,A21C U49G,0.11
2,A20U A57U,0.58
3,A20U A57G,0.23
4,A20U A45G,0.28
5,A20U A45U,0.14
6,A20U A45C,0.12
7,A20U C34U,0.34
8,A20G C38U,0.37
9,A20G C38G,0.12
10,A20G C38A,0.37
11,A20G G22A,0.46
12,A21C U69A,0.17
13,A21C U69C,0.2
14,A20U U43A,0.45
15,A20U U43C,0.29
16,A20U C37U,0.21
17,A21C U58A,0.16
18,A20G G53U,0.69
19,A20G G53A,0.98
20,A20G U72G,0.63
21,A20G U72C,0.84
22,A20G U72A,0.46
